Here are results for one molecule from article PMC11464796.

In this test the target is Msm RNAP core, recombinant (α, ω, β–β′ fusion with C-terminal His8) (Mycobacterium smegmatis) (UniProt A0QSL8).

B1: Msm HelD, wild type, recombinant tag-less (enzyme)
chain: MSGRDYEDELQSERDYVAGLYARLDAERAQSQRRYAAALREHGGTAVERDAEVRALAKDIARLNVADNGLCFGRLDTLDDARLYIGRLGIFDRDNDFEPLLLDWRAPMARPFYVATAANPENMRRRRQFHTLGRKVVDFTDEILGRPTGAEHDATNDAALLAAVNAPRGEGMRDIVATIQAEQDQVIRLDHTGVLVIEGGPGTGKTVVALHRVAYLLYTYRKQMERHGVLVVGPTPAFLDHIGRVLPSLGESDAVFMTPGDFVPGLHVTAEDTPEAAEVKGSLKILDVLKAAVADRQELPSEPIPIDLSDVTMRIDAETAKWARDEARKTGLPHNEARAEFVDVVTYVVTERAVARIGRGWLTRDDKHAWEKMRADVVGELEDHEQFNAALDALWPILTPEDVLAQLYTSHERLRAAGAPECLWRADGEAWTVSDVPLLDELVDLLGRNKAADEAAERERREEEAYAAGVLDLMVDREDLMDDEDHLLAQDLIDAEELADRFKEQDNRELSERAAADREWTYGHVVVDEAQELSEMDWRLLMRRCPRRSFTIVGDLAQRRSPAGARSWGAMLDSYVPGRWVYKSLSVNYRTPAEIMAVAAAVLAEFAPDATPPDSVRACGVAPWARQVTDDDIASAIAEFVSEEAGREGTSVVIGPPDVPGTVPPSETKGLEFDAVLVVEPERILADGPRGAAELYVALTRATQRLGVLYRDALPQALAGLAEGDAAATVEQRTSA
Take B1: the ATPase activity of the HelD–core and HelD–holoenzyme complexes against free HelD was 2.5 fold.
